Holding throughout (experiment): SPR
(In general: SPR reads the build-up and loss of mass on a sensor chip optically.)

In data set [1] the target is T1, murine CCL17 (mCCL17, TARC) (Mus musculus, UniProt Q9WUZ6 24-93).
T1 sequence: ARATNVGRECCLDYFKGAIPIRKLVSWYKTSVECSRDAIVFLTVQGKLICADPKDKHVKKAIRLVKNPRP

Data set [2] concerns the target human CCL17 (hCCL17, TARC) (Homo sapiens, UniProt Q92583 24-94).
The target of data set [3] is T1, murine CCL17 (mCCL17, TARC). This is another data set of the same source.

Sequence of human CCL17 (hCCL17, TARC) (Q92583 24-94): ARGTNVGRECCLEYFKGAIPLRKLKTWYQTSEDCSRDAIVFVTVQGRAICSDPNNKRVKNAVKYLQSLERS

B1: MF35.47 (structured_RNA)
RNA: GGGAGGACGAUGCGGGAGCAGCAUUUGUGGUUUCCCGAUCGCUUCCC
modifications: 2'-fluoro pyrimidines
Regarding B1, the Kd in data set [1] stood at 7.5 ± 1.5 nM. The binding result in data set [2] is recorded as “no binding”.

B2: MF11.46 (structured_RNA)
RNA: GGGUCGUCGCGGGUUGGCUCGUAGAUCGGGCCGGUACAGACGACCC
modifications: 2'-fluoro pyrimidines
B2 yielded a Kd in data set [1] of 0.9 ± 0.1 nM. Besides, the binding result in data set [2] is recorded as “no binding”.

B3: control aptamer (scrambled MF35.47) (structured_RNA)
RNA: GGGGGCGUGUAUGCCAGACCUGCCGAUGUCCUUAAGGUCGACGCUGU
modifications: 2'-fluoro pyrimidines
As to B3, the binding result in data set [3] is reported as “no binding”.

A word on the Kd: it is the equilibrium constant for the complex coming apart. Low readings indicate higher affinity, high ones lower affinity.

The record behind these values is publication PMC5763148.
